Assays:
[1] = tested on: OVCAR-3 human ovarian cancer cells; experiment: Cell surface binding by flow cytometry, OVCAR3 (low expression); format: cell-based; conditions: Cofetuzumab max MFI set at 100%
Procedure: (§1) Certain PTK-7 antibodies of the present disclosure were tested for cell surface binding to three PTK-7 expressing tumor cell lines. Cell lines were selected to represent high, medium, and low receptor densities. OV90-PTK-7, overexpressing engineered ovarian tumor line representing high expression, NCI-H446 human lung cancer cells representing medium endogenous expression and OVCAR-3 human ovarian cancer cells representing low endogenous expression. […] OV90 parental cells and Namalwa-luc-GFP cells were selected as the PTK-7 negative cell lines. Antibody binding was quantified via flow cytometry and both the EC50 of the binding curves and the maximum binding MFI for each antibody were recorded.
(§2) Cells were dissociated using non-enzymatic dissociation buffer for 5 min at 37° C. Cells were counted and aliquoted to a V-bottom polypropylene 96-well plate at 10^5 cells/well. Cells were centrifuged at 1800 rpm×3 min and the supernatant discarded. […]
(§3) Cells were acquired on an Attune Cytpix Cytometer and FCS files generated using Attune™ Cytometric Software (v. 6.0.1). FCS files were then analyzed on FlowJo (v10.8.1). […] Finally, dead cells positive for staining with Zombie Green were excluded and the MFIs of live, Alexa647 positive cells were quantified. Data was graphed and analyzed on GraphPad Prism (v10.1.1).

OV90-PTK-7 = experiment: Cell surface binding by flow cytometry, OV90-PTK-7 (high expression); format: cell-based, human; conditions: Cofetuzumab max MFI set at 100%
Procedure: as §1, §2, §3

[2] = tested on: HeLa PTK-7-eGFP overexpressing engineered cells; experiment: Internalization / lysosomal trafficking by pHrodo fluorescence imaging; format: cell-based, human; conditions: 6 μg/ml (40 nM)
Procedure: Single clone HeLa PTK-7-eGFP overexpressing engineered cells were plated at 5,000 cells per well in a 384-well plate (PhenoPlate 384-well, black, optically clear flat-bottom, tissue-culture treated, PerkinElmer 6057308) in complete culture medium (DMEM, +10% FBS+Glutamax+Pen/Strep). Next day, the cells were treated with 6 μg/ml (40 nM) ADCs or antibodies and pHrodo labeling reagent (Zenon™ pHrodo™ iFL IgG labeling reagents, Catalog number: Z25612, Invitrogen™) with concentration of 6 μg/mL (120 nM). The ADCs or antibodies was mixed with pHrodo labeling reagent for at least 10 min prior to adding to the cells. Then, the cells were imaged using the Opera Phenix Plus high-content screening system every 90 min up to 24 hours. Data were processed and analyzed in Harmony and Microsoft Excel and graphed in GraphPad Prism.

OV90-human PTK7 cells = experiment: In vitro CDC assay with human serum complement; format: cell-based; conditions: PTK-7 expressing OV90 cell line, 3 hours
Procedure: OV90 cell line was engineered to express high level of human PTK7, having antibody binding capacity of 500,000 (using MESF quantification kit, Bangs Laboratories). OV90-human PTK7 cells were added in white clear-bottom 96-well tissue culture plates in assay medium (1:1 MCDB105/Medium199+1×GlutaMax+15% Heat Inactivated Fetal Bovine Serum) and incubated in the incubator at 37° C. with 5% CO2 overnight. Next day, 50 μL/well antibodies were added at final working concentration from 200 nM, 1:3 serially diluted in assay medium and incubated at 37° C. with 5% CO2 for one hour. Diluted human serum complement (1:3) was then added at 50 μL/well in assay medium and incubated at 37° C. with 5% CO2 for 3 hours. Plate was read using CellTiter-Glo Luminescent Cell Viability Assay. 100 μL/well CellTiter-Glo reagent were incubated in plates at room temperature for 10 min. Luminescence was read on a SpectraMax M5e. RLUs (Relative Light Units) were obtained with SoftMax Pro 5.4. Percentage of cell killing was calculated against no treatment. Data was graphed and analyzed using GraphPad Prism version 9.5.1.

[3] = tested on: NCI-H446 human lung cancer cells; experiment: Cell surface binding by flow cytometry, NCI-H446 (medium expression); format: cell-based; conditions: Cofetuzumab max MFI set at 100%
Procedure: as §1, §2, §3

[4] = tested on: Namalwa-Luc-GFP cells co-cultured with OV90-PTK-7; experiment: Bystander effect on Namalwa-Luc-GFP co-cultured with OV90-PTK-7 (ONE-Glo); format: cell-based; conditions: OV90-PTK-7 + Namalwa-Luc-GFP, ratio 2:1; 5-days treatment; Namalwa-Luc-GFP killing
Procedure: (§4) In flat clear bottom 96-well plates, OV90-PTK-7: Namalwa-Luc-GFP clone cells were mixed and seeded at a total of 3000 cells/well/100 μL with a ratio of 2:1 in culture medium (1:1 MCDB105: Medium 199+15% Heat Inactivated Fetal Bovine Serum+1×Glutamax). Namalwa-Luc-GFP cells were negative for PTK-7 expression. Plates were incubated at 37° C. with 5% CO2 overnight. Next day, ADCs were added at final working concentration from 50 nM, 1:4 serially diluted in culture medium. Plates were covered with Breathe-Easy® sealing membrane. Plates were read after 5-days treatment using ONE-Glo™ Luciferase Assay System. 100 μL/well ONE-Glo™ Assay reagent was incubated in plates at room temperature for 10 min. Luminescence was read in the SpectraMax M5e. RLUs (Relative Light Units) were obtained with SoftMax Pro 5.4. Percentage of Namalwa-Luc-GFP killing was calculated against no treatment as 0%. Data was graphed and analyzed using Graphpad Prism version v10.1.1. IC50 was determined via log (inhibitor) vs. response (three parameters) curve fitting for ADC cytotoxicity.

[5] = tested on: Namalwa-Luc-GFP cells co-cultured with NCI-H446; experiment: Bystander effect on Namalwa-Luc-GFP co-cultured with NCI-H446 (ONE-Glo); format: cell-based; conditions: ratio 9:1, 7-days treatment, Namalwa-Luc-GFP killing
Procedure: as §4
In flat clear bottom 96-well plates, NCI-H446: Namalwa-Luc-GFP clone cells were mixed and seeded at a total of 5000 cells/well/100 μL with a ratio of 9:1 in culture medium (RPMI 1640+10% Heat Inactivated Fetal Bovine Serum+1× Glutamax+1 mM sodium pyruvate). […] Plates were read after 7-days treatment using ONE-Glo™ Luciferase Assay System.

OVCAR-3 = experiment: ADC cytotoxicity (CellTiter-Glo) on low PTK-7 expressing cells; format: cell-based, human; conditions: 7 days treatment
Procedure: OVCAR3 cells were seeded in white clear-bottom 96-well tissue culture plates in culture medium (OVCAR3: ATCC modified RPMI 1640+1× GlutaMax+20% Heat Inactivated Fetal Bovine Serum+10 μg/mL bovine insulin). Cells were incubated at 37° C. with 5% CO2 overnight. Next day, ADCs were added at final working concentration from 200 nM, 1:4 serially diluted in culture medium. Plates were covered with Breathe-Easy® sealing membrane and incubated at 37° C. with 5% CO2. Plates were read after 7 days treatment using CellTiter-Glo Luminescent Cell Viability Assay. 100 μL/well CellTiter-Glo reagent were incubated in plates at room temperature for 10 min. Luminescence was read in the SpectraMax M5e. RLUs (Relative Light Units) were obtained with SoftMax Pro 5.4. Percentage of cell killing was calculated against no treatment as 0%. Data was graphed and analyzed using Graphpad Prism version v10.1.1. IC50 was determined via log (inhibitor) vs. response-variable slope (four parameters) curve fitting.

OVCAR3 = OVCAR3 tumor xenograft model; format: in vivo, mice; conditions: OVCAR3 (Day 61); single intravenous dose 2 mg/kg
Procedure: Tumors were measured biweekly using a digital caliper.

B1: Cofetuzumab: humanized anti-PTK-7 IgG1 antibody (hu6M024) with the sequence as disclosed in WO2012112943 (antibody, chains of the INN, looked up, V domains shown)
VH: QVQLVQSGPEVKKPGASVKVSCKASGYTFTDYAVHWVRQAPGKRLEWIGVISTYNDYTYNNQDFKGRVTMTRDTSASTAYMELSRLRSEDTAVYYCARGNSYFYALDYWGQGTSVTVSS
VL: EIVLTQSPATLSLSPGERATLSCRASESVDSYGKSFMHWYQQKPGQAPRLLIYRASNLESGIPARFSGSGSGTDFTLTISSLEPEDFAVYYCQQSNEDPWTFGGGTKLEIK
For B1, the “% of Cofetuzumab (Average Max MFI)” value [1] was 100%, the “% of Cofetuzumab (Average Max MFI)” value (OV90-PTK-7) was 100% and the “pHrodo intensity signal at 24 hrs” value ([2]; Antibodies) was 2.44 ± 0.14. For the same molecule, the CDC potential (OV90-human PTK7 cells) was “did not show CDC potential” and the “% of Cofetuzumab (Average Max MFI)” value [3] was 100%.

B2: Cofetuzumab-Pelidotin: ADC with a cleavable valine-citrulline linker, auristatin-0101 as the payload with a drug-to-antibody ratio (DAR) of 4 (conjugate, chains of the INN, looked up)
VH: QVQLVQSGPEVKKPGASVKVSCKASGYTFTDYAVHWVRQAPGKRLEWIGVISTYNDYTYNNQDFKGRVTMTRDTSASTAYMELSRLRSEDTAVYYCARGNSYFYALDYWGQGTSVTVSS
VL: EIVLTQSPATLSLSPGERATLSCRASESVDSYGKSFMHWYQQKPGQAPRLLIYRASNLESGIPARFSGSGSGTDFTLTISSLEPEDFAVYYCQQSNEDPWTFGGGTKLEIK
modifications: pelidotin: vc linker, auristatin-0101, DAR 4
B2 was tested, and the IC50 [4] was 1.5 nM, the IC50 [5] was 3.18 nM and the IC50 (OVCAR-3) was 2.53 nM. The “pHrodo intensity signal at 24 hrs” value ([2]; ADCs) was 1.71 ± 0.06 and the Mean tumor volume (OVCAR3) was 352.26 mm^3.

B3: Ab4: fully human PTK-7 antibody, human IgG1-AAS (L234A/L235A/D265S), kappa; HC SEQ ID NO: 32, LC SEQ ID NO: 33 (antibody)
heavy: EVQLVESGGGLVKPGGSLRLSCAASGFTFSSYSMNWVRQAPGKGLEWVSSIDSSSSFIYYADSVKGRFTISRDNAKNSLYLQMNSLRAEDTAVYYCARGTGLFDFWGQGTLVTVSSASTKGPSVFPLAPSSKSTSGGTAALGCLVKDYFPEPVTVSWNSGALTSGVHTFPAVLQSSGLYSLSSVVTVPSSSLGTQTYICNVNHKPSNTKVDKRVEPKSCDKTHTCPPCPAPEAAGGPSVFLFPPKPKDTLMISRTPEVTCVVVSVSHEDPEVKFNWYVDGVEVHNAKTKPREEQYNSTYRVVSVLTVLHQDWLNGKEYKCKVSNKALPAPIEKTISKAKGQPREPQVYTLPPSREEMTKNQVSLTCLVKGFYPSDIAVEWESNGQPENNYKTTPPVLDSDGSFFLYSKLTVDKSRWQQGNVFSCSVMHEALHNHYTQKSLSLSPGK
light: EIVLTQSPGTLSLSPGERATLSCRASQSFSSSYLAWYQQKPGQAPRLLIYGASSRATGIPDRFSGSGSGTDFTLTISRLEPEDFAVYYCQQYGRTPWTFGQGTKVEIKRTVAAPSVFIFPPSDEQLKSGTASVVCLLNNFYPREAKVQWKVDNALQSGNSQESVTEQDSKDSTYSLSSTLTLSKADYEKHKVYACEVTHQGLSSPVTKSFNRGEC
For B3, the “pHrodo intensity signal at 24 hrs” value ([2]; Antibodies) was 2.83 ± 0.18.

B4: Ab1: fully human PTK-7 antibody, human IgG1-AAS (L234A/L235A/D265S), kappa; HC SEQ ID NO: 2, LC SEQ ID NO: 3 (antibody)
heavy: EVQLVESGGGLVKPGGSLRLSCAASGFTFSSYIMNWVRQAPGKGLEWVSSISSSSTFIYYADSVKGRFTISRDNAKNSLYLQMNSLRAEDTAVYYCAKGFDYWGQGTLVTVSSASTKGPSVFPLAPSSKSTSGGTAALGCLVKDYFPEPVTVSWNSGALTSGVHTFPAVLQSSGLYSLSSVVTVPSSSLGTQTYICNVNHKPSNTKVDKRVEPKSCDKTHTCPPCPAPEAAGGPSVFLFPPKPKDTLMISRTPEVTCVVVSVSHEDPEVKFNWYVDGVEVHNAKTKPREEQYNSTYRVVSVLTVLHQDWLNGKEYKCKVSNKALPAPIEKTISKAKGQPREPQVYTLPPSREEMTKNQVSLTCLVKGFYPSDIAVEWESNGQPENNYKTTPPVLDSDGSFFLYSKLTVDKSRWQQGNVFSCSVMHEALHNHYTQKSLSLSPGK
light: DIQLTQSPSFLSASVGDRVTITCRASQDISSYLVWYQQKPGKAPKLLIYAASTLQSGVPSRFSGSGSGTEFTLTISSLQPEDFATYYCQQLNTYPRTFGQGTKVEIKRTVAAPSVFIFPPSDEQLKSGTASVVCLLNNFYPREAKVQWKVDNALQSGNSQESVTEQDSKDSTYSLSSTLTLSKADYEKHKVYACEVTHQGLSSPVTKSFNRGEC
In the case of B4, the “pHrodo intensity signal at 24 hrs” value ([2]; Antibodies) is reported as 3.00 ± 0.1.
